The record followed here is patent US20260062466A1 (WASHINGTON UNIVERSITY, published 2026).

One test deals with CHIKV-37997 (virus) (Chikungunya virus strain 37997, UniProt Q5XXP3 326-748; Q5XXP3 810-1248). The experiment in a line: cell-based or functional assay.
A further test has as its target CHIKV-LR 2006 (virus) (Chikungunya virus strain LR 2006). In words: cell-based or functional assay.

CHIKV-37997 (virus), sequence (Q5XXP3 326-748 limits assumed, chain 1 of 2): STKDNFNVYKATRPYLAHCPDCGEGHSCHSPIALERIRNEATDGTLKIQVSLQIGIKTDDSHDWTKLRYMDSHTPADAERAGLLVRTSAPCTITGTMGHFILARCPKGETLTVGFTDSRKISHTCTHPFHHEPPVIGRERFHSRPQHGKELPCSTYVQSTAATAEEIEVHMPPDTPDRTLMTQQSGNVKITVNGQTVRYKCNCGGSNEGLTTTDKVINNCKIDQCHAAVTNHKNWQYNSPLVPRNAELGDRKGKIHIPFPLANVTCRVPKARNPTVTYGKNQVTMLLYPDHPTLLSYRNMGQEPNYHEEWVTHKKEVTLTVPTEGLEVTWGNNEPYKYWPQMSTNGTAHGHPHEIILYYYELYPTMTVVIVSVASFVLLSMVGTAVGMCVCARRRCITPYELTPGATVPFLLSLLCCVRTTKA
CHIKV-37997 (virus), sequence (Q5XXP3 810-1248 limits assumed, chain 2 of 2): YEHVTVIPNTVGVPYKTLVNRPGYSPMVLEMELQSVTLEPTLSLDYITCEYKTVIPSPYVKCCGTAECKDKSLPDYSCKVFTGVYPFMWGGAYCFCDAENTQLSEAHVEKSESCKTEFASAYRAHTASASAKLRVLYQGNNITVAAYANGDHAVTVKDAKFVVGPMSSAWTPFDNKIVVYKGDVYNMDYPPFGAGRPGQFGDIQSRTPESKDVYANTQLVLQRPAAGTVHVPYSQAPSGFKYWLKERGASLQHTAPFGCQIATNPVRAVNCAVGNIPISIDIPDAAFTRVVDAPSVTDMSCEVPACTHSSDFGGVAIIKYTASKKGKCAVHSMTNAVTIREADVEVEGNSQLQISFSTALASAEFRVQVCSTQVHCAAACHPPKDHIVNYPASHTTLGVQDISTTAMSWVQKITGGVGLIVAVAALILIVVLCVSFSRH

B1: 516.A10 (antibody, V domains shown)
VH: QVQMVESGGGVVQPGRSLRLSCAASGFTFSSYPIHWVRQVPGKGLEWVAVISYDGSNKYYADSVKGRFTISRDNSKNTLYLQMNSLRPEDTAVYFCARGRGDFELNSFDYWGQGTLVTVSS
VL: EIVLTQSPGTLSLSPGERATLSCRASQSVSSSYLGWYQQKLGQAPRLLIYGASSRATGIPDRFSGSGSGTDFTLTISRLEPEDFAVYYCQQYGSTPFTFGPGTKVDIK
As for B1, the “FRNT neutralisation, 37997 EC50” value in the test with CHIKV-37997 (virus) turned out to be 0.128 µg/mL. Also, in the test with CHIKV-LR 2006 (virus), the “FRNT neutralisation, LR 2006 EC50” value came out at 0.004 µg/mL.

B2: 506.C01 (antibody, V domains shown)
VH: QVQLQESGPGLVKPSQTLSLTCTVSGGSISSDDYYWTWIRLPPGKGLEWIGYIFYTGGTYYNPSLKSRVTISLDRSKNQFSLKLSSVTAADTAVYFCARAPETYCSTTNCYKGYFDSWGQGTLVTVSS
VL: DIQMTQSPSSVSASVGDRVTITCRASQGISSWLGWYQQKPGKAPKLLIYAASSLQSGVPSRFSGSGSGTDFTLTISSLQPEDFATYYCQQANSFPRTFGQGTKVEIK
As for B2, the “FRNT neutralisation, 37997 EC50” value in the test with CHIKV-37997 (virus) was determined as 0.002 µg/mL. Besides, in the test with CHIKV-LR 2006 (virus), the “FRNT neutralisation, LR 2006 EC50” value was found to be 0.008 µg/mL.

B3: 506.A08 (antibody, V domains shown)
VH: EEQLVESGGGLVQPGGSLRLSCAASGFTFSSYSMNWVRQAPGKGLEWVSYISSSSSTIHYADSVKGRFTISRDNAKNSLYLQMNSLRAEDTAVYYCAREGNSGYEPLDYWGQGTLVTVSS
VL: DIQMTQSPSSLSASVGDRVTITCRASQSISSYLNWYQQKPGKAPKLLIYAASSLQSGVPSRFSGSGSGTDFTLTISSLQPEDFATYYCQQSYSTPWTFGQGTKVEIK
Turning to B3, in the test with CHIKV-37997 (virus), the “FRNT neutralisation, 37997 EC50” value is 0.072 µg/mL. In addition, the “FRNT neutralisation, LR 2006 EC50” value with CHIKV-LR 2006 (virus) came to 0.11 µg/mL.
